Key:
[1] = molecular target: IL-2 receptor (CD25) on HUT-102 and MT-2 cells (human) (UniProt P01589); assay: cell-based or functional assay
[2] = molecular target: T1, CD124 (IL4-receptor) on 4T1 triple-negative breast cancer cells (mouse) (UniProt P16382); assay: cell-based or functional assay
T1 sequence: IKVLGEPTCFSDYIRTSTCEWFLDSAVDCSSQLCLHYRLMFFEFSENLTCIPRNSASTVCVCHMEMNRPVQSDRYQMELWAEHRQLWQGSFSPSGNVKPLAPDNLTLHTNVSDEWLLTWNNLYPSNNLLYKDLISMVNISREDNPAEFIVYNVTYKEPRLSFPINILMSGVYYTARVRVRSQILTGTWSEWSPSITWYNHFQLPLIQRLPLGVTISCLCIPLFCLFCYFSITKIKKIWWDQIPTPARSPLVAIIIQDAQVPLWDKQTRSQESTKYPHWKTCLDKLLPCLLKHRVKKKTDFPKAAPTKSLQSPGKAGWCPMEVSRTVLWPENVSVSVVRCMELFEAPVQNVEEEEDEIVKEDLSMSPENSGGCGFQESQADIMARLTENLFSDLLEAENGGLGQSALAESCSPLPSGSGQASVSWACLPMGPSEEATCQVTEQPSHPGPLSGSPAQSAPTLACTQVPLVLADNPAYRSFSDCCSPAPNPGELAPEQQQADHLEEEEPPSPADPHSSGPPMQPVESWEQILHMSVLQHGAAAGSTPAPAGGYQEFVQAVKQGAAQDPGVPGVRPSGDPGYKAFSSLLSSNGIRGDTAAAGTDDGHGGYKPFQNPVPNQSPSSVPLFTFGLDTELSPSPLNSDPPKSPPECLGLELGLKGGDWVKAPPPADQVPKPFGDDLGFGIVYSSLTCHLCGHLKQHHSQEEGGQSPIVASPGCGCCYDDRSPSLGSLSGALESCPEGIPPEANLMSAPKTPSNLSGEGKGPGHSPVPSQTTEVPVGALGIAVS

Sequence of UniProt P01589 (P01589 22-272): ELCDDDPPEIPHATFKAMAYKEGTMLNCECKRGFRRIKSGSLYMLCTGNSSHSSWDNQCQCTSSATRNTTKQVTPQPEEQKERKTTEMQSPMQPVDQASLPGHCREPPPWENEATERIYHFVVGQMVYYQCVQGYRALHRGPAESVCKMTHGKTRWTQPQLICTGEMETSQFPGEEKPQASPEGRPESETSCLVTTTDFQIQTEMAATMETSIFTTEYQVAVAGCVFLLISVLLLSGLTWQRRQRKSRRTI

C. diphtheriae-derived s-Ontak-His6 (SEQ ID NO: 58)
MT-2 cell IC50 (earlier disclosed data) [1]: 0.12 pM

E. coli-derived classic Ontak (denileukin diftitox, SEQ ID NO: 10)
IC50 against HUT-102 T cell lymphoma cells (in vitro cell killing) [1]: 1.8 pM

s-DAB1-389-mIL4-His6 (SEQ ID NO: 134)
IC50 for killing 4T1 cells (Trypan blue viability) [2]: 10 pM | IC50 of 4T1 cell migration inhibition (clonogenic assay, Giemsa staining) [2]: 800 pM

Reference: patent publication US20220023395A1
